In general, Vmax refers to the top rate of the reaction or transport when substrate is in excess. The Km is the substrate concentration at which the rate is half of its maximum.

Results on one protein are retold here after PMC4665922, “Comparative assessment of native and heterologous 2-oxo acid decarboxylases for application in isobutanol production by Saccharomyces cerevisiae” (Biotechnology for Biofuels, 2015).

Common to all, as to assay: cells, lysate or membranes
Assay type in all cases: biochemical, Lactococcus lactis

Substrate in data set [1]: CC(C)C(=O)C(=O)O
The conditions noted are these: cell extract of ammonium-grown cells, pH 7.0, 30 °C, 0.2 mM thiamine pyrophosphate, 5 mM MgCl2, cooperative, Hill equation.

Substrate in data set [2]: CC(C)CC(=O)C(=O)O
The conditions noted are these: cell extract of ammonium-grown cells, pH 7.0, 30 °C, 0.2 mM thiamine pyrophosphate, 5 mM MgCl2.

Substrate in data set [3]: CC[C@H](C)C(=O)C(=O)O
The conditions noted are these: cell extract of ammonium-grown cells, pH 7.0, 30 °C, 0.2 mM thiamine pyrophosphate, 5 mM MgCl2.

B1: KivD (Lactococcus lactis subsp. lactis) (protein)
chain: MYTVGDYLLDRLHELGIEEIFGVPGDYNLQFLDQIISHKDMKWVGNANELNASYMADGYARTKKAAAFLTTFGVGELSAVNGLAGSYAENLPVVEIVGSPTSKVQNEGKFVHHTLADGDFKHFMKMHEPVTAARTLLTAENATVEIDRVLSALLKERKPVYINLPVDVAAAKAEKPSLPLKKENSTSNTSDQEILNKIQESLKNAKKPIVITGHEIISFGLEKTVTQFISKTKLPITTLNFGKSSVDEALPSFLGIYNGTLSEPNLKEFVESADFILMLGVKLTDSSTGAFTHHLNENKMISLNIDEGKIFNERIQNFDFESLISSLLDLSEIEYKGKYIDKKQEDFVPSNALLSQDRLWQAVENLTQSNETIVAEQGTSFFGASSIFLKSKSHFIGQPLWGSIGYTFPAALGSQIADKESRHLLFIGDGSLQLTVQELGLAIREKINPICFIINNDGYTVEREIHGPNQSYNDIPMWNYSKLPESFGATEDRVVSKIVRTENEFVSVMKEAQADPNRMYWIELILAKEGAPKVLKKMGKLFAEQNKS
notes: full-length ORF, codon optimised, no tag mentioned; TDH3 promoter plasmid pUDE336 in S. cerevisiae IME262 (pdc1 pdc5 pdc6 aro10 deleted); cell extract
Regarding B1, in data set [1], the K0.5 came to 7.73 ± 1.62 mM, the Vmax was 0.03 µmol/min/mg and the Vmax/Km came out at 3.9 µL/min/mg. Besides, in data set [2], the Km came to 2.42 ± 0.90 mM, the Vmax was 0.04 µmol/min/mg and the Vmax/Km was found to be 17 µL/min/mg. In data set [3], the Km is listed as 12.9 ± 2.87 mM, the Vmax was 0.05 µmol/min/mg and the Vmax/Km is 3.9 µL/min/mg.
